± gives the standard deviation of the averaged measurements.
Test system: ATP
Assay: switch fluorescence ratio, 500 uM ATP over buffer (Cy3 cluster intensity, sum of 5 cycles each) (fold (ratio)); higher = stronger signal-on switching upon ATP binding; sequences stand for … in TCGTCGGCAGCGTCAGATGTGTATAAGAGACAGTTTTTTTTTTTTTTTTTTTTTTTTT…TC
Conditions: aptamer strand: ATP DNA aptamer (quencher-CACCTGGGGGAGTATTGCGGAGGAAGG + anchor), 100 nM annealed; ATP concentration: 500 uM
How it was run: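 Cy3-labelled switching-strand clusters on a modified Illumina MiSeq flow-cell were annealed to 100 nM quencher-labelled ATP aptamer and imaged first in selection buffer, then after 15 min with 500 uM ATP at 22 °C. NaOH stripping and re-annealing separated each of five buffer/ATP cycles, and clusters outside 100-1000 RFU were excluded. The fluorescence ratio sums target-cycle Cy3 intensity over buffer-cycle Cy3 intensity per cluster and averages it per switch-domain sequence.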
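Further: ATP exposure 15 min at 22 °C before imaging.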

| Sequence | switch fluorescence ratio |
| --- | --- |
| GTGTGTGGCA | 1.03 ± 0.038 |
| GTGTGTTGAT | 0.989 ± 0.029 |
| GTGTTAAGGT | 0.99 ± 0.019 |
| GTGTTAAGTT | 0.987 ± 0.034 |
| GTGTTAGGGG | 1.02 ± 0.069 |
| GTGTTATTAG | 1.005 ± 0.007 |
| GTGTTATTGC | 0.953 ± 0.011 |
| GTGTTCTGGA | 1.002 ± 0.006 |
| GTGTTGGATG | 0.958 ± 0.069 |
| GTGTTGGGGC | 0.985 ± 0.038 |
| GTGTTTAACC | 0.984 ± 0.021 |
| GTGTTTGGTG | 1 ± 0.032 |
| GTGTTTTCGT | 0.993 ± 0.03 |
| GTGTTTTGTT | 0.986 ± 0.034 |
| GTTAAAAATG | 1.04 ± 0.051 |
| GTTAAAATAC | 1.13 ± 0.014 |
| GTTAAACGTT | 1 ± 0.014 |
| GTTAATGGGT | 0.98 ± 0.047 |
| GTTAATTGGG | 0.953 ± 0.037 |
| GTTACACGGT | 1.01 ± 0.021 |
| GTTACTAATT | 0.9943 ± 0.0081 |
| GTTACTTGGT | 1.01 ± 0.034 |

| Sequence | switch fluorescence ratio |
| --- | --- |
| GTTAGAATAA | 0.958 ± 0.015 |
| GTTAGAGTTT | 0.988 ± 0.03 |
| GTTAGATTGT | 0.9731 ± 0.0039 |
| GTTAGCTTAG | 0.99 ± 0.025 |
| GTTAGGGGAG | 1 ± 0.042 |
| GTTAGGTACG | 1 ± 0.07 |
| GTTAGGTCAG | 0.997 ± 0.028 |
| GTTAGTAATC | 1.06 ± 0.014 |
| GTTAGTAGAT | 1.01 ± 0.019 |
| GTTAGTCTGT | 0.9907 ± 0.0052 |
| GTTAGTGGGC | 0.971 ± 0.037 |
| GTTATAAGGG | 0.975 ± 0.03 |
| GTTATAAGTG | 0.9924 ± 0.0054 |
| GTTATAATGG | 0.9998 ± 0.0087 |
| GTTATAGCTT | 1.018 ± 0.0029 |
| GTTATAGGCT | 0.999 ± 0.035 |
| GTTATAGTAT | 0.963 ± 0.054 |
| GTTATATGTG | 0.982 ± 0.055 |
| GTTATATTGG | 0.992 ± 0.022 |
| GTTATATTTT | 1.01 ± 0.032 |
| GTTATGACTC | 1 ± 0.076 |
| GTTATGCTAT | 0.996 ± 0.017 |

| Sequence | switch fluorescence ratio |
| --- | --- |
| GTTATTCAAT | 0.9724 ± 0.0018 |
| GTTATTGCGA | 0.997 ± 0.019 |
| GTTATTTAGA | 1.03 ± 0.043 |
| GTTCAAAATT | 1.03 ± 0.036 |
| GTTCAAGGCT | 1.0016 ± 0.0002 |
| GTTCACCAAT | 1 ± 0.07 |
| GTTCACCGGG | 1.141 ± 0.0051 |
| GTTCAGTAGG | 0.9677 ± 0.0077 |
| GTTCCCAGGA | 1.09 ± 0.02 |
| GTTCGAACGA | 0.9856 ± 0.001 |
| GTTCGAACGG | 0.9963 ± 0.006 |
| GTTCGACCCG | 1.02 ± 0.032 |
| GTTCGACTGT | 1.024 ± 0.0042 |
| GTTCGGATGG | 1.015 ± 0.0032 |
| GTTCGGCGGC | 0.991 ± 0.016 |
| GTTCGGGGTT | 1.014 ± 0.0016 |
| GTTCGTACGT | 0.962 ± 0.082 |
| GTTCGTTGAC | 0.9862 ± 0.0067 |
| GTTCGTTTTG | 0.975 ± 0.035 |
| GTTCTAAAAA | 1.02 ± 0.042 |
| GTTCTGTTGG | 0.995 ± 0.023 |
| GTTCTTACTT | 0.973 ± 0.059 |

| Sequence | switch fluorescence ratio |
| --- | --- |
| GTTCTTGGGA | 1.03 ± 0.077 |
| GTTCTTGGTG | 1.01 ± 0.0089 |
| GTTCTTTTGG | 0.973 ± 0.01 |
| GTTCTTTTTT | 0.9511 ± 0.0071 |
| GTTGAAAGGG | 1.03 ± 0.027 |
| GTTGAACAGT | 1.01 ± 0.065 |
| GTTGAAGGAC | 0.996 ± 0.026 |
| GTTGAAGGGG | 1.029 ± 0.009 |
| GTTGAATCTT | 0.995 ± 0.035 |
| GTTGACGCTA | 1.07 ± 0.024 |
| GTTGACTTAA | 1.02 ± 0.013 |
| GTTGATAGCG | 0.991 ± 0.025 |
| GTTGATAGTA | 0.993 ± 0.031 |
| GTTGATCTGC | 1 ± 0.029 |
| GTTGATTTTC | 1.017 ± 0.0079 |
| GTTGCAGCCT | 0.981 ± 0.018 |
| GTTGCAGTTG | 1.07 ± 0.077 |
| GTTGCATATT | 0.978 ± 0.023 |
| GTTGCGACGG | 1 ± 0.028 |

Reference: the supplement of paper PMC10126150
